Legend:
[1] = target: T1, Cre recombinase monomer with Q311R mutation
T1 chain: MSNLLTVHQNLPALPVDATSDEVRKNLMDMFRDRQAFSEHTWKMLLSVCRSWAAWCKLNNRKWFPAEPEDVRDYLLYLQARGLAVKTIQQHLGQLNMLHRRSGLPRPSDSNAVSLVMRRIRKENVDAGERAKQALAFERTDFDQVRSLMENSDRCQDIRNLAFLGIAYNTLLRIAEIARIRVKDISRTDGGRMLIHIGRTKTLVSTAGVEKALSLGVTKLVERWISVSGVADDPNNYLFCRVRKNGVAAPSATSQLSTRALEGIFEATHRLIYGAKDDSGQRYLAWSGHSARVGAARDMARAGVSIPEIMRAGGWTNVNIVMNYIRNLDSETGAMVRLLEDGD

[2] = target: T2, Cre recombinase monomer with R292Q mutation
T2 chain: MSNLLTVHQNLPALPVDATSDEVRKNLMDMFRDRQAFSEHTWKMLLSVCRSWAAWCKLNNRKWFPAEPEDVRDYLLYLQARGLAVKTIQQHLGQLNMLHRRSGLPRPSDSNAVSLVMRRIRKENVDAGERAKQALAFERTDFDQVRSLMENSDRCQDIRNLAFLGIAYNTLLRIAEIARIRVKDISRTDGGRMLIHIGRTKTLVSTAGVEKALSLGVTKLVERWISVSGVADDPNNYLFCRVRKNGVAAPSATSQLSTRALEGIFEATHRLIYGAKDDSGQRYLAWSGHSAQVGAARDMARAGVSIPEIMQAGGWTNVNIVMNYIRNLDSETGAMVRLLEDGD

[3] = target: T3, Cre recombinase monomer with Y324N mutation
T3 chain: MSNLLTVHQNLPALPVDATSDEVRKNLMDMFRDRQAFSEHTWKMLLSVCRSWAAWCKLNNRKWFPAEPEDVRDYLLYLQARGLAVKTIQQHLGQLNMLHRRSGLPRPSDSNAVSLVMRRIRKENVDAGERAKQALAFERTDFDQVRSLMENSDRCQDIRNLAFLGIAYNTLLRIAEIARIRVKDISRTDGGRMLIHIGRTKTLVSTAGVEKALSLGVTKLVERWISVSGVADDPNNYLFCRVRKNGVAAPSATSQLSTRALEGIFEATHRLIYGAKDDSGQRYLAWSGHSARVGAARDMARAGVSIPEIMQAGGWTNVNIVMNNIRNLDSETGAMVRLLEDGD

[4] = target: T4, Cre recombinase monomer with Y324R mutation
T4 chain: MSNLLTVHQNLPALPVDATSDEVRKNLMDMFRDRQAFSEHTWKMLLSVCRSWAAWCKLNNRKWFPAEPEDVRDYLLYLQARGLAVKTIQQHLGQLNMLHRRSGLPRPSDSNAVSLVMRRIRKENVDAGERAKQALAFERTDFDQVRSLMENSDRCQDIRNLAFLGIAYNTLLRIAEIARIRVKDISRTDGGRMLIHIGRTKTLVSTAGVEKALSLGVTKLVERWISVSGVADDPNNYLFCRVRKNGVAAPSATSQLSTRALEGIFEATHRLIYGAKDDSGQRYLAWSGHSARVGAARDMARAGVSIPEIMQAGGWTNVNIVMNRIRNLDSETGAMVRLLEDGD

[5] = target: T5, Cre recombinase monomer with Y324T mutation
T5 chain: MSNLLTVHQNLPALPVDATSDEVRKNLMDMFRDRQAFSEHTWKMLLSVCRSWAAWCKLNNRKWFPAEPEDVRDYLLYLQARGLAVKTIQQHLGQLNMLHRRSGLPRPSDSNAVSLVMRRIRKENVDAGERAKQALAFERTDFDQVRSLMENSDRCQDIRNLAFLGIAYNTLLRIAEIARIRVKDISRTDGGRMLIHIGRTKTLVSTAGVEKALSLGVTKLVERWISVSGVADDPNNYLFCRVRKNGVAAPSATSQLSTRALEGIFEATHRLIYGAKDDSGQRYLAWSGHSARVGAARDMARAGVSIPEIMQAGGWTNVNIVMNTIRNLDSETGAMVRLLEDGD

[6] = target: T6, Cre recombinase monomer with K201Q mutation
T6 chain: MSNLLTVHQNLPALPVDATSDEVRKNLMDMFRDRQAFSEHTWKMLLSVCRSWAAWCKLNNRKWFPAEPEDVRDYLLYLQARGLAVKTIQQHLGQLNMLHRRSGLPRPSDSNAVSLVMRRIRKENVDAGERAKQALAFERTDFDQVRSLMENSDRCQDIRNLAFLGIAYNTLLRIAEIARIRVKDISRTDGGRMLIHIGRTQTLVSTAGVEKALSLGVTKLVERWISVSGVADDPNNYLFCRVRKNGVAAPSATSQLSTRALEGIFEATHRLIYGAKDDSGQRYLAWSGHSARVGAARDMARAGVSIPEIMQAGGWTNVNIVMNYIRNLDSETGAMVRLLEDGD

[7] = target: T7, Cre recombinase monomer with K201P mutation
T7 chain: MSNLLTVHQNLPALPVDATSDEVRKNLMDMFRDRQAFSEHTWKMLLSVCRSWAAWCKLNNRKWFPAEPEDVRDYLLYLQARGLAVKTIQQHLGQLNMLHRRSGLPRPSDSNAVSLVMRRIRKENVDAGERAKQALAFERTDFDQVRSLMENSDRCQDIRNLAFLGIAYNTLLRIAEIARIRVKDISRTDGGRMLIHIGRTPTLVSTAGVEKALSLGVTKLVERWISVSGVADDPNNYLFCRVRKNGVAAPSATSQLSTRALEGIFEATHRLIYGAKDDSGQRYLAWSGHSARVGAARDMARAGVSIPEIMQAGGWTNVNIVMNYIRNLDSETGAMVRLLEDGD

[8] = target: T8, Cre recombinase monomer with Y324S mutation
T8 chain: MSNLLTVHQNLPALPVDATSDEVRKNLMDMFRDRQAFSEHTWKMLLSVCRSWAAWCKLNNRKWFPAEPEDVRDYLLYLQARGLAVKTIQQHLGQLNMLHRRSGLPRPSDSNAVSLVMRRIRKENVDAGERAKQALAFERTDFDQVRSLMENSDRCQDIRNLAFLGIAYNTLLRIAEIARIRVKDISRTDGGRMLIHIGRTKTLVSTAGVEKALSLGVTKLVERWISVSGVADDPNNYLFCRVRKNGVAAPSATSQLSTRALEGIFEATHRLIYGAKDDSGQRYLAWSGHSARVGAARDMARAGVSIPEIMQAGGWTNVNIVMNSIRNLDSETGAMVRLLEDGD

[9] = target: T9, Cre recombinase monomer with R292A mutation
T9 chain: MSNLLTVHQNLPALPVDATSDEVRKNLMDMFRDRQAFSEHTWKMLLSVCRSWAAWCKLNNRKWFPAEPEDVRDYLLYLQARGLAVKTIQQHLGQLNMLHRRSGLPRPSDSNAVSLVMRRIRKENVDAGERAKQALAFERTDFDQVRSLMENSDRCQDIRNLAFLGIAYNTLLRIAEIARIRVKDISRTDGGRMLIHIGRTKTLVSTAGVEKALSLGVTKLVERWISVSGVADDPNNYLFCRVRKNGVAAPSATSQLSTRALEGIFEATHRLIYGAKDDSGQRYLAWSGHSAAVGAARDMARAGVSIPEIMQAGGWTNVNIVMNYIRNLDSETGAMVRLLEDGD

[10] = target: T10, Cre recombinase monomer with W315N mutation
T10 chain: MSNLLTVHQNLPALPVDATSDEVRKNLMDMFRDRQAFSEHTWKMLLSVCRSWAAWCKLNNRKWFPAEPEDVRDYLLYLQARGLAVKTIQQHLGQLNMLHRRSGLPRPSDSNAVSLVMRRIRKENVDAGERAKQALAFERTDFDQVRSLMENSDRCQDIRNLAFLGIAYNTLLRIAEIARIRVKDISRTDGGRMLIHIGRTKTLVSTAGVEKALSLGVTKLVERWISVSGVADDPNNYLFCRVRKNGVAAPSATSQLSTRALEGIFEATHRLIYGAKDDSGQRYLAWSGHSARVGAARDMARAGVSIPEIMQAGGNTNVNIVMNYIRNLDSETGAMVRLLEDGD

B1: Cre recombinase monomer with K201C mutation (protein)
chain: MSNLLTVHQNLPALPVDATSDEVRKNLMDMFRDRQAFSEHTWKMLLSVCRSWAAWCKLNNRKWFPAEPEDVRDYLLYLQARGLAVKTIQQHLGQLNMLHRRSGLPRPSDSNAVSLVMRRIRKENVDAGERAKQALAFERTDFDQVRSLMENSDRCQDIRNLAFLGIAYNTLLRIAEIARIRVKDISRTDGGRMLIHIGRTCTLVSTAGVEKALSLGVTKLVERWISVSGVADDPNNYLFCRVRKNGVAAPSATSQLSTRALEGIFEATHRLIYGAKDDSGQRYLAWSGHSARVGAARDMARAGVSIPEIMQAGGWTNVNIVMNYIRNLDSETGAMVRLLEDGD
Median dimer activity (recombination on loxP) [1]: 93% | Median dimer activity (recombination on loxP) [2]: 52%

B2: Cre recombinase monomer with W315C mutation (protein)
chain: MSNLLTVHQNLPALPVDATSDEVRKNLMDMFRDRQAFSEHTWKMLLSVCRSWAAWCKLNNRKWFPAEPEDVRDYLLYLQARGLAVKTIQQHLGQLNMLHRRSGLPRPSDSNAVSLVMRRIRKENVDAGERAKQALAFERTDFDQVRSLMENSDRCQDIRNLAFLGIAYNTLLRIAEIARIRVKDISRTDGGRMLIHIGRTKTLVSTAGVEKALSLGVTKLVERWISVSGVADDPNNYLFCRVRKNGVAAPSATSQLSTRALEGIFEATHRLIYGAKDDSGQRYLAWSGHSARVGAARDMARAGVSIPEIMQAGGCTNVNIVMNYIRNLDSETGAMVRLLEDGD
Median dimer activity (recombination on loxP) [3]: 38% | Median dimer activity (recombination on loxP) [4]: 31% | Median dimer activity (recombination on loxP) [5]: 36%

B3: Cre recombinase monomer with E176W mutation (protein)
chain: MSNLLTVHQNLPALPVDATSDEVRKNLMDMFRDRQAFSEHTWKMLLSVCRSWAAWCKLNNRKWFPAEPEDVRDYLLYLQARGLAVKTIQQHLGQLNMLHRRSGLPRPSDSNAVSLVMRRIRKENVDAGERAKQALAFERTDFDQVRSLMENSDRCQDIRNLAFLGIAYNTLLRIAWIARIRVKDISRTDGGRMLIHIGRTKTLVSTAGVEKALSLGVTKLVERWISVSGVADDPNNYLFCRVRKNGVAAPSATSQLSTRALEGIFEATHRLIYGAKDDSGQRYLAWSGHSARVGAARDMARAGVSIPEIMQAGGWTNVNIVMNYIRNLDSETGAMVRLLEDGD
Median dimer activity (recombination on loxP) [6]: 28% | Median dimer activity (recombination on loxP) [1]: 90%

B4: Cre recombinase monomer with K201D mutation (protein)
chain: MSNLLTVHQNLPALPVDATSDEVRKNLMDMFRDRQAFSEHTWKMLLSVCRSWAAWCKLNNRKWFPAEPEDVRDYLLYLQARGLAVKTIQQHLGQLNMLHRRSGLPRPSDSNAVSLVMRRIRKENVDAGERAKQALAFERTDFDQVRSLMENSDRCQDIRNLAFLGIAYNTLLRIAEIARIRVKDISRTDGGRMLIHIGRTDTLVSTAGVEKALSLGVTKLVERWISVSGVADDPNNYLFCRVRKNGVAAPSATSQLSTRALEGIFEATHRLIYGAKDDSGQRYLAWSGHSARVGAARDMARAGVSIPEIMQAGGWTNVNIVMNYIRNLDSETGAMVRLLEDGD
Median dimer activity (recombination on loxP) [7]: 70%

B5: Cre recombinase monomer with W315E mutation (protein)
chain: MSNLLTVHQNLPALPVDATSDEVRKNLMDMFRDRQAFSEHTWKMLLSVCRSWAAWCKLNNRKWFPAEPEDVRDYLLYLQARGLAVKTIQQHLGQLNMLHRRSGLPRPSDSNAVSLVMRRIRKENVDAGERAKQALAFERTDFDQVRSLMENSDRCQDIRNLAFLGIAYNTLLRIAEIARIRVKDISRTDGGRMLIHIGRTKTLVSTAGVEKALSLGVTKLVERWISVSGVADDPNNYLFCRVRKNGVAAPSATSQLSTRALEGIFEATHRLIYGAKDDSGQRYLAWSGHSARVGAARDMARAGVSIPEIMQAGGETNVNIVMNYIRNLDSETGAMVRLLEDGD
Median dimer activity (recombination on loxP) [8]: 35%

B6: Cre recombinase monomer with Q133H mutation (protein)
chain: MSNLLTVHQNLPALPVDATSDEVRKNLMDMFRDRQAFSEHTWKMLLSVCRSWAAWCKLNNRKWFPAEPEDVRDYLLYLQARGLAVKTIQQHLGQLNMLHRRSGLPRPSDSNAVSLVMRRIRKENVDAGERAKHALAFERTDFDQVRSLMENSDRCQDIRNLAFLGIAYNTLLRIAEIARIRVKDISRTDGGRMLIHIGRTKTLVSTAGVEKALSLGVTKLVERWISVSGVADDPNNYLFCRVRKNGVAAPSATSQLSTRALEGIFEATHRLIYGAKDDSGQRYLAWSGHSARVGAARDMARAGVSIPEIMQAGGWTNVNIVMNYIRNLDSETGAMVRLLEDGD
Median dimer activity (recombination on loxP) [1]: 96% | Median dimer activity (recombination on loxP) [9]: 48% | Median dimer activity (recombination on loxP) [10]: 33%

Source: patent US20230183713A1, “SITE-SPECIFIC RECOMBINASES FOR EFFICIENT AND SPECIFIC GENOME EDITING” (TECHNISCHE UNIVERSITÄt DRESDEN, published 2023)
